Measured values published in patent US12215133.

Molecular target: T1, GIP receptor
T1 sequence (P48546 whole entry, species assumed, looked up): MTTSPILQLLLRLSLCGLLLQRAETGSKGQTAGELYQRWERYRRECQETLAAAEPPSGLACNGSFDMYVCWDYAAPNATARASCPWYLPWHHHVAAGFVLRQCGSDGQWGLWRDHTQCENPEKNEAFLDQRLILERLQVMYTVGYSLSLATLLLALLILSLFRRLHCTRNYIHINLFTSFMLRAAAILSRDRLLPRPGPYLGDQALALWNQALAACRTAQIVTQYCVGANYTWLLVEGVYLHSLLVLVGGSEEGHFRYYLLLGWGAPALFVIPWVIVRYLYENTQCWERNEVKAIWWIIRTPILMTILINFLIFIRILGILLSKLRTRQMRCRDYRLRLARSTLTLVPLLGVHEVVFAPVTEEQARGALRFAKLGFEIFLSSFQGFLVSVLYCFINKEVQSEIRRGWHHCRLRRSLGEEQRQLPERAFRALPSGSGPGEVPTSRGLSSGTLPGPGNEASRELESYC
Assay: cell-based or functional assay

Substance | cAMP experimental result of GIP receptor, EC50 [nM]
BG121 (LY3298176) (peptide) | 1.79
BGM134 (Semaglutide) (peptide) | > 50
